What was measured:
[1] = target: T1, CsRecQ catalytic core S245A (Cronobacter sakazakii, UniProt A7MQK9 1-521, S245A); test: X-ray crystallography; discontinuous density in helicase/winged-helix cleft; 20 mM Tris-HCl pH 8.0, 100 mM NaCl, 1 mM MgCl2, 1 mM 2-mercaptoethanol, 0.1 mg/mL BSA, 4% glycerol; 5 nM DNA, 30 min at room temperature, read at 25 C (G4 folded in 10 mM Tris-HCl pH 8.0, 100 mM KCl); conditions: protein: recombinant; tags: N-terminal His tag removed (thrombin); antiparallel G4 with 12 nt 3' ssDNA tail; resolved (unwound) in 6CRM
[2] = target: T1, CsRecQ catalytic core S245A; test: fluorescence anisotropy; 1 mM Mg2+; Kd not determined (anisotropy decreased with time); 20 mM Tris-HCl pH 8.0, 100 mM NaCl, 1 mM MgCl2, 1 mM 2-mercaptoethanol, 0.1 mg/mL BSA, 4% glycerol; 5 nM DNA, 30 min at room temperature, read at 25 C (G4 folded in 10 mM Tris-HCl pH 8.0, 100 mM KCl); conditions: protein: recombinant; tags: N-terminal His tag removed (thrombin); label: 3' FAM; intramolecular G4 (folded in 100 mM KCl) with 12 nt 3' ssDNA tail
[3] = target: T2, EcRecQ catalytic core S245A (Escherichia coli, UniProt P15043 1-523, S245A); test: as above; conditions: protein: recombinant; tags: N-terminal His tag removed (thrombin); label: 3' FAM; intramolecular G4 (folded in 100 mM KCl) with 12 nt 3' ssDNA tail
CsRecQ catalytic core = CsRecQ catalytic core (Cronobacter sakazakii, UniProt A7MQK9 1-521); test: fluorescence anisotropy; apparent Kd; 1 mM Mg2+; 20 mM Tris-HCl pH 8.0, 100 mM NaCl, 1 mM MgCl2, 1 mM 2-mercaptoethanol, 0.1 mg/mL BSA, 4% glycerol; 5 nM DNA, 30 min at room temperature, read at 25 C (G4 folded in 10 mM Tris-HCl pH 8.0, 100 mM KCl); conditions: protein: recombinant, tags: N-terminal His tag removed (thrombin)
[4] = target: EcRecQ catalytic core D312A (Escherichia coli, UniProt P15043 1-523, D312A); test: as above; conditions: protein: recombinant, tags: N-terminal His tag removed (thrombin)
EcRecQ catalytic core = EcRecQ catalytic core (Escherichia coli, UniProt P15043 1-523); test: as above; conditions: protein: recombinant, tags: N-terminal His tag removed (thrombin)
[5] = target: T1, CsRecQ catalytic core S245A; test: as above; conditions: protein: recombinant; tags: N-terminal His tag removed (thrombin); label: 3' FAM on Duplex 1; 18 bp, 3' overhang 12 nt on strand 1
[6] = target: T2, EcRecQ catalytic core S245A; test: as above; conditions: protein: recombinant; tags: N-terminal His tag removed (thrombin); label: 3' FAM on Duplex 1; 18 bp, 3' overhang 12 nt on strand 1
[7] = label: 3' FAM, intramolecular G4 (folded in 100 mM KCl) with 12 nt 3' ssDNA tail
[8] = label: 3' FAM on Duplex 1, 18 bp, 3' overhang 12 nt on strand 1

Binder: TTAGGGTTAGGGTTAGGGTTAGGGTCGGTGCCTTACT (structured_DNA) [G4 DNA]
- binding result [1]: binds

Binder: TTAGGGTTAGGGTTAGGGTTAGGGTCGGTGCCTTACT (structured_DNA) [F-G4]
- binding result [2]: binds
- binding result [3]: binds
- Kd (CsRecQ catalytic core; [7]): 4700 ± 900 nM
- Kd [4, 7]: 330 ± 40 nM
- Kd (EcRecQ catalytic core; [7]): 1000 ± 100 nM

B1: Duplex 1/Duplex 2 (dsDNA)
DNA 1: GCGTGGGTAATTGTGCTTCAATGGACTGAC
DNA 2: AAGCACAATTACCCACGC
- Kd (CsRecQ catalytic core; [8]): 2900 ± 300 nM
- Kd [4, 8]: 280 ± 20 nM
- Kd (EcRecQ catalytic core; [8]): 950 ± 60 nM
- Kd [5]: 4000 ± 1600 nM
- Kd [6]: 2200 ± 200 nM

— article PMC6180126, “A guanine-flipping and sequestration mechanism for G-quadruplex unwinding by RecQ helicases”
